Consider twelve compounds from patent US20100048462A1, “TRUNCATED PTH PEPTIDES WITH A CYCLIC CONFORMATION” (Zealand Pharma A/S, priority 2006, published 2010).

Bridge positions count the residues as written; N and C are the ends. Square brackets hold non-standard residues; d marks the D form. Peptide text beside a SMILES is read from it. hArg = N=C(N)NCCCC[C@H](N)C(=O)O; Ac5c = NC1(C(=O)O)CCCC1; Dap = NC[C@H](N)C(=O)O; Aib = CC(C)(N)C(=O)O

Series [1] concerns the target T1, CYP2D6 (Homo sapiens, UniProt P10635). Briefly: cell-based or functional assay.
The target in series [2] is Saos-2 PTH1R (UniProt Q03431). Briefly: cell-based or functional assay.
For series [3], the target named is T2, Saos-2 PTH1R (Homo sapiens, UniProt Q03431).
T2 construct: endogenous in cells; host or cells: Saos-2
T2 sequence (Q03431 27-593): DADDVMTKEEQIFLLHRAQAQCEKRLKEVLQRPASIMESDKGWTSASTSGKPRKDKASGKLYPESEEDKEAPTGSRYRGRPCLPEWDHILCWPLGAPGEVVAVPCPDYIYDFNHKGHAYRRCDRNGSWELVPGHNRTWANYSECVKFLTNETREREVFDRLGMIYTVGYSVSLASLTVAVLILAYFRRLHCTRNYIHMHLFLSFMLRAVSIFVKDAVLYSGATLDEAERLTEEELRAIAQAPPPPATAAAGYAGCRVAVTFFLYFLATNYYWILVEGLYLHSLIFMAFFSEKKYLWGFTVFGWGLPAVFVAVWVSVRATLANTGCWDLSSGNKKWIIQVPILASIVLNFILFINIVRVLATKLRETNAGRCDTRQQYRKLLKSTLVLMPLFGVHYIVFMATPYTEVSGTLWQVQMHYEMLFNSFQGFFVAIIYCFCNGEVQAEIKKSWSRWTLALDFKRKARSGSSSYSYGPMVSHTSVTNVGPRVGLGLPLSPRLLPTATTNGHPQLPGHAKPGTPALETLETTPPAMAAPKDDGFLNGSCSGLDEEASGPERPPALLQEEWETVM
Briefly: cAMP-efficacy assay in Saos-2 cells. The following applies: for Emax ± SEM: relative effect to the control (SEQ ID NO: 32). The series is classed as cell-based. Put shortly:
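cAMP accumulation was assayed by FlashPlate after 15 min peptide stimulation at 37 °C of Saos-2 cells in Tyrode's buffer containing 100 μM IBMX and 0.1% BSA, with the reaction stopped by ice-cold HCl. Variable-slope logistic fitting gave EC50/pEC50, Hill coefficient and Emax, with single or triplicate points.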

In series [4] the target is T1, CYP2D6. Briefly: CYP2D6 inhibition in pooled human liver microsomes. The series is classed as in vitro ADME. On the set-up: Pooled human liver microsomes (HLM, final concentration 0.05 mg protein/mL); tissue BD Biosciences 452161; host or cells: pooled human liver microsomes. The following applies: 10 μM compound, dextrorphan formation rate. Here is the method: Stock solutions of the test compounds (1 mM) were prepared in 50% isopropanol or 20% DMSO. Pooled human liver microsomes (HLM, final concentration 0.05 mg protein/mL) were mixed with phosphate buffer (0.1 M potassium phosphate, pH 7.4), CYP2D6 substrate (dextrometrorphan, 5 μM final concentration) and test compound (10 μM), quinidine (0.5 μM) or vehicle (0.2% DMSO or 0.5% isopropanol). The mixture was preincubated for 5 min at 37° C. prior to initiation of the reaction addition of a NADPH regenerating mixture (Final concentration: 1.25 mM NADP^+, 3.3 mM Glucose-6-phosphate, 3.3 mM MgCL2 and 0.4 U/mL glucose-6-phosphat dehydrogenase). After 5 minutes the reaction was stopped by addition of 0.25 volume stop reagent (94% acetonitrile, 6% acetic acid). Each experiment was performed in duplicate or triplicate.
The quantification of CYP2D6 product (dextrorphan) was performed by LC/MS/MS. After centrifugation for 5 min at 10.000 g, 40 μL of the supernatant was injected onto a C8 RP-HPLC column (XterraMS, C8, […], 50×2.1 mm). Dextrorphan was eluted by a linear gradient from 0 to 90% acetonitrile in 0.1% formic acid over 4 min using a flow rate of 0.15 ml/min. The concentration of dextrorphan in the reaction mixture was estimated from the peak area of the MS/MS transition (m/z 258.1>199) using an external calibration curve (Table 8).
The CYP2D6 activity in HLM was calculated as the metabolite formation rate: […]
Where, v is the formation rate, [metabolite] is the detected concentration of dextrorphan (pmol/mL) at the time (t, min) and [protein] is the protein concentration (mg/mL) in the reaction mixture. The influence of the test compounds on the CYP2D6 activity was calculated as % of the activity measured when incubated with the vehicle. The effect of CYP2D6 inhibitor (quinidine) was included as inhibition control within each batch analysis. A reduction in CYP2D6 activity to less than 70% of the vehicle control was considered significant.

Setting [5] is: cAMP, 100 μM IBMX, 37° C. 15 min, suffix of label = salt tested.

T1 sequence (P10635 whole entry): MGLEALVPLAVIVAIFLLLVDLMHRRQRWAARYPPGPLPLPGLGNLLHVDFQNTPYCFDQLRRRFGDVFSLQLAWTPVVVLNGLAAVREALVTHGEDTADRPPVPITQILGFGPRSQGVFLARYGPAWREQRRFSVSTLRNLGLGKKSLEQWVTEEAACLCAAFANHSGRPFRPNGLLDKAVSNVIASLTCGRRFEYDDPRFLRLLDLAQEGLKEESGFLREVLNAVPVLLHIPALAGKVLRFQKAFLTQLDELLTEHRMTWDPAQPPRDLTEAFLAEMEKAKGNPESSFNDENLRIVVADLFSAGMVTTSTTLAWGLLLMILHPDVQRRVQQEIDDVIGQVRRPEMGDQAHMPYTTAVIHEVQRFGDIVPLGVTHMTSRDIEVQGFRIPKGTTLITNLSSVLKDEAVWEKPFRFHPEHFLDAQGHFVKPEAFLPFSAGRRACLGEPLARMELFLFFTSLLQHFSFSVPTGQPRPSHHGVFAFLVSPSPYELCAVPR

As for “H-Ser-Val-Ser-Glu-Ile-Gln-Leu-Met-His-Asn-Leu-Gly-Lys( )-His-Leu-Asn-Asp( )-NH2 (peptide)”, the CYP2D6 activity (% of vehicle), dextrorphan formation rate in human liver microsomes, 10 µM peptide in the series with CYP2D6 [1] is 79 % of vehicle.

For “H-Ac5c-Val-Aib-Glu-Ile-Gln-Leu-Met-His-Gln-Har-Ala-Lys( )-Trp-Leu-Asn-Asp( )-OH (peptide)”, the CYP2D6 activity (% of vehicle), dextrorphan formation rate in human liver microsomes, 10 µM peptide with CYP2D6 [1] was 89 % of vehicle. In the series with Saos-2 PTH1R [2], the Emax, cAMP efficacy assay in Saos-2 cells (4T, trifluoroacetate salt) (relative to control (SEQ ID NO: 32)) was found to be 1.11 and the pEC50, cAMP efficacy assay in Saos-2 cells (4T, trifluoroacetate salt) is 7.42 -log(M).

Regarding “H-Ac5c-Val-Aib-Glu-Ile-Gln-Leu-Met-His-Gln-Har-Ala-Glu( )-Trp-Leu-Asn-Lys( )-NH2 (peptide)”, the CYP2D6 activity (% of vehicle), dextrorphan formation rate in human liver microsomes, 10 µM peptide with CYP2D6 [1] is 99 % of vehicle. In addition, in the series with Saos-2 PTH1R [2], the Emax, cAMP efficacy assay in Saos-2 cells (8T, trifluoroacetate salt) (relative to control (SEQ ID NO: 32)) is 1.07 and the pEC50, cAMP efficacy assay in Saos-2 cells (8T, trifluoroacetate salt) was 7.94 -log(M).

As to “H-Ac5c-Val-Aib-Glu-Ile-Gln-Leu-Met-His-Glu-Har-Ala-Lys( )-Trp-Leu-Asn-Asp( )-NH2 (peptide)”, the CYP2D6 activity (% of vehicle), dextrorphan formation rate in human liver microsomes, 10 µM peptide with CYP2D6 [1] is 83 % of vehicle. Also, in the series with Saos-2 PTH1R [2], the Emax, cAMP efficacy assay in Saos-2 cells (24T, trifluoroacetate salt) (relative to control (SEQ ID NO: 32)) was 1.4 and the pEC50, cAMP efficacy assay in Saos-2 cells (24T, trifluoroacetate salt) is 6.9 -log(M).

On to “H-Ser-Val-Ser-Glu-Ile-Gln-Leu-Met-His-Asn-Leu-Gly-Lys-His-Leu-Asn-Ser-NH2 (peptide)”, for which the CYP2D6 activity (% of vehicle), dextrorphan formation rate in human liver microsomes, 10 µM peptide with CYP2D6 [1] is 41 % of vehicle.

“H-Ac5c-Val-Aib-Glu-Ile-Glu-Leu-Met-His-Gln-Har-Ala-Lys( )-Trp-Leu-Asn-Asp( )-NH2 (peptide)”: the CYP2D6 activity (% of vehicle), dextrorphan formation rate in human liver microsomes, 10 µM peptide with CYP2D6 [1] was 89 % of vehicle. Moreover, in the series with Saos-2 PTH1R [2], the Emax, cAMP efficacy assay in Saos-2 cells (18T, trifluoroacetate salt) (relative to control (SEQ ID NO: 32)) stood at 1.24 and the pEC50, cAMP efficacy assay in Saos-2 cells (18T, trifluoroacetate salt) is 7.29 -log(M).

Take “H-Ac5c-Val-Aib-Glu-Ile-Gln-Leu-Nle-His-Gln-Har-Ala-Lys( )-Trp-Leu-Asn-Asp( )-NH2 (peptide)”: in the series with CYP2D6 [1], the CYP2D6 activity (% of vehicle), dextrorphan formation rate in human liver microsomes, 10 µM peptide was 99 % of vehicle. For the same compound, in the series with Saos-2 PTH1R [2], the Emax, cAMP efficacy assay in Saos-2 cells (20T, trifluoroacetate salt) (relative to control (SEQ ID NO: 32)) is 0.97 and the pEC50, cAMP efficacy assay in Saos-2 cells (20T, trifluoroacetate salt) is 8.1 -log(M).

One may read the EC50 as the concentration needed to bring the measured effect to its halfway point. Turning to `CC[C@H](C)[C@H](NC(=O)[C@H](CCC(=O)O)NC(=O)C(C)(C)NC(=O)[C@@H](NC(=O)C1(N)CCCC1)C(C)C)C(=O)N[C@@H](CCC(=O)O)C(=O)N[C@@H](CC(C)C)C(=O)N[C@@H](CCSC)C(=O)N[C@@H](Cc1c[nH]cn1)C(=O)N[C@@H](CCC(N)=O)C(=O)N[C@@H](CCCCNC(=N)N)C(=O)N[C@@H](C)C(=O)N[C@H]1CCCCNC(=O)C[C@@H](C(N)=O)NC(=O)[C@H](CC(N)=O)NC(=O)[C@H](CC(C)C)NC(=O)[C@H](Cc2c[nH]c3ccccc23)NC1=O` [SEQ ID NO: 18, H-Ac5c-Val-Aib-Glu-IIe-Glu-Leu-Met-His-Gln-Har-Ala-Lys( )-Trp-Leu-Asn-Asp( )-NH2] (H-[Ac5c]V[Aib]EIELMHQ[hArg]AKWLND-NH2; lactam 13-17), the EC50 at Saos-2 PTH1R [3] (setting [5]) was 51.3 nM. The “Emax ± SEM” value on Saos-2 PTH1R [3] stood at 1.24 ± 0.29. Further, the “CYP2D6 activity (% of vehicle)” value on CYP2D6 [4] is on record as 89 % of vehicle.

With `CC[C@H](C)[C@H](NC(=O)[C@H](CCC(=O)O)NC(=O)C(C)(C)NC(=O)[C@@H](NC(=O)C1(N)CCCC1)C(C)C)C(=O)N[C@@H](CCC(N)=O)C(=O)N[C@@H](CC(C)C)C(=O)N[C@@H](CC(C)C)C(=O)N[C@@H](Cc1c[nH]cn1)C(=O)N[C@@H](CCC(N)=O)C(=O)N[C@@H](CCCCNC(=N)N)C(=O)N[C@@H](C)C(=O)N[C@H]1CNC(=O)C[C@@H](C(N)=O)NC(=O)[C@H](CC(N)=O)NC(=O)[C@H](CC(C)C)NC(=O)[C@H](Cc2c[nH]c3ccccc23)NC1=O` [SEQ ID NO: 17, H-Ac5c-Val-Aib-Glu-Ile-Gln-Leu-Leu-His-Gln-Har-Ala-Dpr( )-Trp-Leu-Asn-Asp( )-NH2] (H-[Ac5c]V[Aib]EIQLLHQ[hArg]A[Dap]WLND-NH2; lactam 13-17), the EC50 at Saos-2 PTH1R [3] (setting [5]) was 776 nM. Also, the “Emax ± SEM” value at Saos-2 PTH1R [3] came to 1.25 ± 0.05. For the same compound, the “CYP2D6 activity (% of vehicle)” value at CYP2D6 [4] was 101 % of vehicle.

Take `CC[C@H](C)[C@H](NC(=O)[C@H](CCC(=O)O)NC(=O)C(C)(C)NC(=O)[C@@H](NC(=O)C1(N)CCCC1)C(C)C)C(=O)N[C@@H](CCC(N)=O)C(=O)N[C@@H](CC(C)C)C(=O)N[C@@H](CCSC)C(=O)N[C@@H](Cc1c[nH]cn1)C(=O)N[C@@H](CCC(N)=O)C(=O)N[C@@H](CCCCNC(=N)N)C(=O)N[C@@H](C)C(=O)N[C@H]1CCC(=O)NCCCC[C@@H](C(N)=O)NC(=O)[C@H](CC(N)=O)NC(=O)[C@H](CC(C)C)NC(=O)[C@H](Cc2c[nH]c3ccccc23)NC1=O` [SEQ ID NO: 8, H-Ac5c-Val-Aib-Glu-Ile-Gln-Leu-Met-His-Gln-Har-Ala-Glu( )-Trp-Leu-Asn-Lys( )-NH2] (H-[Ac5c]V[Aib]EIQLMHQ[hArg]AEWLNK-NH2; lactam 13-17): at Saos-2 PTH1R [3] (setting [5]), the EC50 was 11.5 nM. Moreover, the “Emax ± SEM” value at Saos-2 PTH1R [3] is on record as 1.07 ± 0.02. The “CYP2D6 activity (% of vehicle)” value at CYP2D6 [4] is given as 99 % of vehicle.

For `CC[C@H](C)[C@H](NC(=O)[C@H](CCC(=O)O)NC(=O)C(C)(C)NC(=O)[C@@H](NC(=O)C1(N)CCCC1)C(C)C)C(=O)N[C@@H](CCC(N)=O)C(=O)N[C@@H](CC(C)C)C(=O)N[C@@H](CCSC)C(=O)N[C@@H](Cc1c[nH]cn1)C(=O)N[C@@H](CCC(N)=O)C(=O)N[C@@H](CCCCNC(=N)N)C(=O)N[C@@H](C)C(=O)N[C@H]1CCCCNC(=O)CC[C@@H](C(N)=O)NC(=O)[C@H](CC(N)=O)NC(=O)[C@H](CC(C)C)NC(=O)[C@H](Cc2c[nH]c3ccccc23)NC1=O` [SEQ ID NO: 9, H-Ac5c-Val-Aib-Glu-Ile-Gln-Leu-Met-His-Gln-Har-Ala-Lys( )-Trp-Leu-Asn-Glu( )-NH2] (H-[Ac5c]V[Aib]EIQLMHQ[hArg]AKWLNE-NH2; lactam 13-17), at Saos-2 PTH1R [3] (setting [5]), the concentration giving a half-maximal response (EC50) was 14.1 nM. Further, the “Emax ± SEM” value on Saos-2 PTH1R [3] turned out to be 1.03 ± 0.03. For the same compound, the “CYP2D6 activity (% of vehicle)” value on CYP2D6 [4] is listed as 85 % of vehicle.

For `CC[C@H](C)[C@H](NC(=O)[C@H](CCC(=O)O)NC(=O)C(C)(C)NC(=O)[C@@H](NC(=O)C1(N)CCCC1)C(C)C)C(=O)N[C@@H](CCC(N)=O)C(=O)N[C@@H](CC(C)C)C(=O)N[C@@H](CCSC)C(=O)N[C@@H](Cc1c[nH]cn1)C(=O)N[C@@H](CC(N)=O)C(=O)N[C@@H](CC(C)C)C(=O)NCC(=O)N[C@@H](CCCCN)C(=O)N[C@@H](Cc1c[nH]cn1)C(=O)N[C@@H](CC(C)C)C(=O)N[C@@H](CC(N)=O)C(=O)N[C@@H](CC(=O)O)C(N)=O` [SEQ ID NO: 1] (H-[Ac5c]V[Aib]EIQLMHNLGKHLND-NH2), at Saos-2 PTH1R [3] (setting [5]), the “pEC50 ± SEM” value was “inactive”. Further, the “CYP2D6 activity (% of vehicle)” value at CYP2D6 [4] is listed as 57 % of vehicle.
